Source: patent US20120136195A1, “DRUG DELIVERY SYSTEM OF TARGET DRUG AND METHOD OF IMPLEMENTING THE SAME” (priority 2010, published 2012)

Test: Impact of ultrasound acoustic pressure on enzyme activity of the drug
Assay type: physicochemical
Excerpt: In the evaluation of ultrasound power and parameter adjustment, and their impacts on enzyme activity, in order to ascertain whether ultrasound could affect drug activity, thus evaluating correctly the benefit of the present invention, therefore in an experiment, various acoustic pressure are given, and evaluations are made for activity of drug on the magnetic particles after applying various numbers of pulses. […] From the result it can be confirmed that, the present invention is able to cause suspension of magnetic particles, while reducing as much as possible its impact on the drug carried by the magnetic particles.

recombinant tissue plasminogen activator [rtPA]
enzyme activity after applying ultrasound (acoustic pressure of 7.1 MPa (FIG. 9)): apparent loss of enzyme activity | enzyme activity after applying ultrasound (lower acoustic pressure (below 7.1 MPa, FIG. 9)): will not be affected
